Experimental data: the supplement of paper PMC9170038

system: MS2 coat protein; assay: apparent KD of MS2 coat protein; higher = weaker reporter binding; conditions: Eterna round: R107; input ligand: arginine 13.2 mM
Procedure, shortened: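 Titration buffer: 100 mM Tris-HCl pH 7.5, 80 mM KCl, 4 mM MgCl2, without or with constant ligand. Designed RNA switches transcribed on-chip from Illumina sequencing clusters received SNAP-549-labelled MS2 coat protein in twofold steps from 0.7 or 1.5 nM to 3 µM. Apparent KD is the median per design of fits to normalised cluster binding curves.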

Row | Sequence | apparent KD of MS2 coat protein
1 | AUCUACGUGGGUGAUACCAGCUGGUUAGUACACAUGAGGAUCACCCAUGUGCAGGCAGGCAGCCCUUGGCAGCACCGCAGUGGCU [theeternabot_sameState_MS2_Theo_B_36] | 42.8 nM
2 | CUCAUCCACGCGGCCGCCACUACUUGUAGGUGUGGGUGUGUUGUGUUACAUGAGGAUCACCCAUGUAGGACCGGGCGUGGAUGAG [Whale] | 53.9 nM
3 | UAUAUAGAUGGAAGUCAUAUAGAUGCAGAAGGAGCGUAGGAAACUACAGGUAGGUCGCUGAGGUACAUGAGGAUCACCCAUGUAG [SSArg A #18 Slice of Pi] | 20.8 nM
4 | UUCUACGGCGAUCUGGGUUUACCAGAUCGACGAGGACCGGUACGGCCGCCACUCGUGUUUCUUUAACAUGAGGAUCACCCAUGUA [#11 Tryptophan A Same State] | 53 nM
5 | AUUCAUAAUUGGGUAAAUGGAUAGAGUGAUACCAGUCAUAUACAUGACCCUUGGCAGCACAAGGACAUGAGGAUCACCCAUGUCA [Same State Theophylline A GF22] | 21.1 nM
6 | GAUCGACAAAACGUCUAGGAAAACUAGACGCGAGGACCGGUACGGCCGCCACUCGUCCUCACAUGAGGAUCACCCAUGUACGAUC [#SwitchBubble 2 #CuTurnoff] | 30.3 nM
7 | GCGAUGGAGCGAAGGAGCGGCUAAAUGUAUCACAUGAGGAUCACCCAUGUUCCAGGAUGUGGCCAGGUAGGUCGCGCUCCAUCGC [SSAB NP+V+V2 #16] | 233 nM
8 | UGUGUUGUCCGAAGGAGCGGGACCUAAUAGUGGUAACAUGAGGAUCACCCAUGUAUUUCGUCCCAGGUAGGUCGCGGACAGUGUA [ArgiB-ms2@36] | 19 nM
9 | GAAGGAGAACUCAUGACUCCUUCCCUGGAAGGAGCGAGCGAAAGCUCAGGUAGGUCGCCAGAAACAUGAGGAUCACCCAUGUAAU [(A)''-(M)'-(A)'-(Arg1)-(Arg2)-(M1)-(M2)_Design4] | 28.5 nM
10 | AUCAUGGCCAUCGAUACCAGCUACAUGAGGAUCACCCAUGUAAACGGCGCGGUGAGAUGUAGCCCUUGGCAGCGAAGGGUCAAGG [Beonrexe] | 16.4 nM
11 | CCUAUGCAGUCGGCCGCCACUGAACAUGAGGAUCACCCAUGUAAUUAUAAAUAUGGUCCUAAAAUCAGGACCGGGACUGUAUAGG [Ex Tryptophan B 7] | 122 nM
12 | UCUCACAUGAGGAUCACCCAUGUGUGCGGUCGAGGACCGGUACGGCCGCCACUCGAAUCCUUCCGCGAGAAGAUUGUACGACGGC [theeternabot_sameState_MS2_Trp_A_38] | 28.3 nM
13 | AUCUGUAUGUUUUCGUGUUUUAUUACAGAUACCAGACUAUACGUUGUCCCUUGGCAGCUGGAUGACAUGAGGAUCACCCAUGUUG [#27 Exclusion-TheophyllineA] | 24 nM
14 | GCAUCCUAGUCGGCCGCCACUGCAUCACCAGUGGCAGGUGAUCAACAUGAGGAUCACCCAUGUAGCAGGACCGGGACUAGGAUGC [(Trp1)-(TM)''-(TM)'-(Ms2)-(Trp2)_Design4] | 113 nM
15 | GGGUACAUCACGGCCGCCACUCAUGUAAAUACAUGAGGAUCACCCAUGUCGAUGGAGACAUCGGAGAGGACCGGGUGAUGUACCG | 187 nM
16 | UACCGAUGAAGAAGGAGCGUACGUGGUUCACAUGAGGAUCACCCAUGUGCUUAUUGCUAGGUACAGGUAGGUCGCUUCAUCGGUA [SSAB NP+V+V2 #21] | 16.5 nM
17 | CUCUCAUGAACAUGAGGAUCACCCAUGUAACGAGGACCGGUACGGCCGCCACUCGGUCGUGGAAACUAAUCGAGUGAGGUGGGAG [Tryp A Ex t5c] | 26.8 nM
18 | GCUACAUGAGGAUCACCCAUGUGUACUGAAGGAGCGGCGGAAACGCCAGGUAGGUCGCAGUAUGUGGCUCUGGGCACGAGAAAGC [SSAA NP+V+V2 #2] | 36.6 nM
19 | CGCCGAGAGGGAAGGAGCGCGAUAACAUAACAUGAGGAUCACCCAUGUAAGAAAUUAAUCAUGCAGGUAGGUCGCCCAAGCGGCG [Same State Arginine B GF 3] | 15 nM

Row | Sequence | apparent KD of MS2 coat protein
20 | UCACGACGCAUGGAUACCAGCGACAUGAGGAUCACCCAUGUAUGAGGAUCAGCCAUGUUAUGCCCUUGGCAGCCACGAAGGUCAU [KNKMULLIN] | 14.2 nM
21 | UUCAAAGGGAACGGUGCUGGUAACAGAGAUACCAGAGUAAUAAUACUCCCUUGGCAGCUCAUAACAUGAGGAUCACCCAUGUAAU [Exclusion Theophylline A GF21] | 12.4 nM
22 | ACGUCGCAUAGGAAAACUAUGUGACGAAAUCGAGGACCGGUACGGCCGCCACUCGUCCUCAACAUGAGGAUCACCCAUGUAAUAA [Mat - Exclusion - Trytophan A - D7] | 19.3 nM
23 | GGUCACCUAUCCUCAUUGGUGACCCUGGAAGGAGCGAGCGAGAGCUCAGGUAGGUCGCCAGAACAUGAGGAUCACCCAUGUAAUA [(A)''-(M)'-(A)'(Arg1)-(Arg2)-(M1)-(M2)_Design12] | 43.4 nM
24 | UUAUAAGUACCGGUCCUCAGAUCCUCAUGACGAGGACCGGUACGGCCGCCACUCGAAACAUGAGGAUCACCCAUGUAAUAACACU [Brourdmod20] | 19.2 nM
25 | GAGGGUGAGCCUCUGGUCCGUUUGACGGAUACCAGCGAGAGGUCUCGCCCUUGGCAGCCGACGACAUGAGGAUCACCCAUGUUAA [#09 Exclusion-TheophyllineA] | 17.3 nM
26 | UCGUCCUCCGCAAGGAGGAGGAGUUGCGAUACCAGCACGGUAACGUGCCCUUGGCAGCGCACAUGAGGAUCACCCAUGUGGUGUU [#1 Exclusion - Theophylline A Attempt #13 (HarryS)] | 59.3 nM
27 | GUUUAAAGGUCGGCCGCCACUGUAGGAUGUGUUCUUUCACAUGAGGAUCACCCAUGUUGUUAUUAUAGGACCGGGAUUGUAGGAC [39MS split4] | 22.6 nM
28 | UUCAGUACAACAGAUACCAGACAGUACUCUAAAUUGCAACAUGAGGAUCACCCAUGUAUAGUCCCUUGGCAGCUGUAAUGGGUGA [Theo B SS s2] | 150 nM
29 | AACAUGAGGAUCACCCAUGUCUGAACUGAAGGAGCGCUAAAUAAGGCAGGUAGGUCGCGGAAUUUUGUAUAUAUAUAUAUAUGGG [9.F] | 6.01 nM
30 | UUUGCACAUGAGGAUCACCCAUGUACAGAUACCAGCCUCAUCUACGGCCCUUGGCAGCUGAGACAAUGGUGACGUGAUGGGCUUU [Iserraxeso] | 12.9 nM
31 | GGUUACUCUACGGCCGCCACUGUAAUGUAAAGAUUCCUGUACAUGACAUGAGGAUCACCCAUGUGCAGGACCGGGUAGUGUAACC [Tryptophan B 20] | 126 nM
32 | UUUGCACAUGAGGAUCACCCAUGUACAGAUACCAGCCUCAUCUACGGCCCUUGGCAGCUGAGACAAUGGUGACGUGACGGGCUUU [Erqugere] | 13 nM
33 | CAGAGCUACCGGGAUACCAGAAUUGGUAUUCCUAUAUUUCUUACAUGAGGAUCACCCAUGUUCCCUUGGCAGCUUGGUAGCUCUG [ETHB #9] | 45.1 nM
34 | UUUUUCAUAGGUUAUAGUUAAGAAACUGAAGGAGCGUGGUAAUACACAGGUAGGUCGCAGAUUUUACAUGAGGAUCACCCAUGUU [JR_SSArginiA_Sub009] | 27.8 nM
35 | CUGUACAUCUCGGCCGCCACUGACAUGAGGAUCACCCAUGUAGUACCUGAGAUAGACAUAUCUUACAGGACCGGGAGGUGUGCAG [SSTryp B #31] | 12.2 nM
36 | UCUUUCUUUGUAGAUACCAGCAUGUUAAGUUUCUUUUGACAUGAGGAUCACCCAUGUACAUGCCCUUGGCAGCUACAUUUUCUUU [SSThB NP+V+V2 Same Structure] | 15.6 nM
37 | UCCCUACCGUCGGCCGCCACUGGGUCAUACAGUUCGUAACUACAUGAGGAUCACCCAUGUGCAGCCAGGACCGGGACGCGCCUUG [theeternabot_sameState_MS2_Trp_B_16] | 30.2 nM
